# Source: US20020164657A1, “Assays for assessing A beta-Tau aggregation” (priority 2001, published 2002)
# Biological target: T1, tau phosphorylated by TPK II (Homo sapiens, UniProt P10636)
# T1 construct: Human recombinant tau 1-383 isoform; made in house; host or cells: tau and p20: E. coli; cdk5: baculovirus-infected insect cells
# Assay: Gel-shift assay of TPK II tau phosphorylation
# Type: biochemical
# Conditions: 3 μM tau, 50 nM TPK II, 60 μM Aβ peptide, 4 hours, FIG. 8
# Description: Gel-shift assays were done by incubating 3 μM tau with 50 nM TPK II and/or 167 units/ml TPK I for the indicated time at 37° C. in a total volume of 20 μl containing 40 mM Tris, pH 7.5, 10 mM MgCl2, 1 mM DTT, and 1 mM ATP. Aβ peptides were added at 10× concentrations to the assay to achieve the final concentration indicated. Following incubation the samples were electrophoresed on 12% SDS-PAGE and stained with Coomassie Blue R-250.
# T1 sequence (P10636 1-383 isoform P10636-6): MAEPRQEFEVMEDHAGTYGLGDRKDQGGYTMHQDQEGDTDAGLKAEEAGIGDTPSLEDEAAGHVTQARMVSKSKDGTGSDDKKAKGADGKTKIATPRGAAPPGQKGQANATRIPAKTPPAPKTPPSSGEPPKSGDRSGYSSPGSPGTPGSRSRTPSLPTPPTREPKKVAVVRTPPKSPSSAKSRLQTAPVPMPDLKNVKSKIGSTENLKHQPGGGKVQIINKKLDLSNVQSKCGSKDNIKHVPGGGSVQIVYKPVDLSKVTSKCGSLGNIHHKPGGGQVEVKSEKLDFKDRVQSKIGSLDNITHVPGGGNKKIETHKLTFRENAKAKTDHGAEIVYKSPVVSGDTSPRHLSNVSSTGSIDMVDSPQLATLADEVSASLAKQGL
row,effect on tau gel shift,Substance
1,no effect,"Aβ 1-40: beta-amyloid peptide, residues 1-40, obtained from Bachem; control peptide"
2,no effect,"Aβ 25-35: beta-amyloid peptide fragment 25-35, obtained from Bachem; control peptide (GSNKGAIIGLM)"
